Data taken from patent publication US20230074436A1 (DENALI THERAPEUTICS, published 2023).
No end group written: not given here. *: point of attachment. Biotin = O=C1N[C@H]2[C@H](CS[C@H]2CCCCC(=O)*)N1

What was measured:
[1] = molecular target: T1, beta-synuclein protein (human, UniProt Q16143 1-134); experiment: ELISA on coated synuclein, 1 ug/mL
T1 construct: species read from 'recombinant human alpha-synuclein protein, beta-synuclein protein, and gamma-synuclein protein'
Procedure: (§1) Binding to different synuclein species was tested using a method similar to the ELISA format described above. Briefly, recombinant human alpha-synuclein protein, beta-synuclein protein, and gamma-synuclein protein was coated onto 96-well Nunc plates at 1 μg/mL. The plates were washed with PBST and blocked with 150 μL of 3% BSA in PBS. The serial dilutions of purified antibodies were applied onto the plate, and the associated antibody was detected with goat anti-rat HRP secondary antibody.

[2] = molecular target: T2, gamma-synuclein protein (human, UniProt O76070 1-127); experiment: ELISA on coated synuclein, 1 ug/mL
T2 construct: species read from 'recombinant human alpha-synuclein protein, beta-synuclein protein, and gamma-synuclein protein'
Procedure: as §1

[3] = molecular target: T3, asyn_113-127 (human); experiment: Ala-scan peptide ELISA, row C, run 2
T3 construct: also called pep1
T3 peptide: Biotin-LEDMPVDPDNEAYEM
Procedure: (§2) 96-well Nunc plates were coated with 50 μL per well of 1 μg/mL streptavidin (from Jackson Immuno Research Laboratory) in PBS at 4° C. overnight. The plates were washed three times with PBST, and blocked with PBS containing 3% BSA at room temperature for 1 hour. The N-terminal biotinylated peptides were dissolved in Milli Q water to a concentration of 2 mg/mL, then further diluted to a concentration of 2 μg/mL with PBS. 50 μl of the diluted peptide was applied to the streptavidin-coated plates and incubated at 4° C. overnight. 2 μg/mL of biotinylated human alpha-synuclein was used as the positive control. The plates were washed three times with PBST before use. Purified antibody was diluted by serial dilution methods, from 20 μg/mL to 1 ng/mL, and 50 μL of the antibody solution was added to the peptide-coated wells. The plates were incubated for 1 hour at room temperature, then washed three times with PBST. Secondary detection antibody (goat anti-rat HRP (obtained from Southern Biotech)) was added with 1:5,000 dilutions and incubated for 1 hour at room temperature, then washed three times with PBST. Plates were developed with 50 μL/well of TMB substrate (Thermo Fisher) and quenched with 50 μL/well of 1 N sulfuric acid. The signal was quantified on a BioTek® plate reader at A450. A parallel repeat was performed for each peptide in a separate plate.

[4] = molecular target: T4, asyn_113-127_113A (human); experiment: Ala-scan peptide ELISA, row C, run 2
T4 construct: substitution is already in the entry; also called pep2
T4 peptide: Biotin-AEDMPVDPDNEAYEM
Procedure: as §2

[5] = molecular target: T5, asyn_113-127_114A (human); experiment: Ala-scan peptide ELISA, row C, run 2
T5 construct: substitution is already in the entry; also called pep3
T5 peptide: Biotin-LADMPVDPDNEAYEM
Procedure: as §2

[6] = molecular target: T6, asyn_113-127_115A (human); experiment: Ala-scan peptide ELISA, row C, run 2
T6 construct: substitution is already in the entry; also called pep4
T6 peptide: Biotin-LEAMPVDPDNEAYEM
Procedure: as §2

[7] = molecular target: T7, asyn_113-127_116A (human); experiment: Ala-scan peptide ELISA, row C, run 2
T7 construct: substitution is already in the entry; also called pep5
T7 peptide: Biotin-LEDAPVDPDNEAYEM
Procedure: as §2

[8] = molecular target: T8, asyn_113-127_117A (human); experiment: Ala-scan peptide ELISA, row C, run 2
T8 construct: substitution is already in the entry; also called pep6
T8 peptide: Biotin-LEDMAVDPDNEAYEM
Procedure: as §2

[9] = molecular target: T9, asyn_113-127_118A (human); experiment: Ala-scan peptide ELISA, row C, run 2
T9 construct: substitution is already in the entry; also called pep7
T9 peptide: Biotin-LEDMPADPDNEAYEM
Procedure: as §2

[10] = molecular target: T10, asyn_113-127_119A (human); experiment: Ala-scan peptide ELISA, row C, run 2
T10 construct: substitution is already in the entry; also called pep8
T10 peptide: Biotin-LEDMPVAPDNEAYEM
Procedure: as §2

[11] = molecular target: T11, asyn_113-127_120A (human); experiment: Ala-scan peptide ELISA, row C, run 2
T11 construct: substitution is already in the entry; also called pep9
T11 peptide: Biotin-LEDMPVDADNEAYEM
Procedure: as §2

[12] = molecular target: T12, asyn_113-127_121A (human); experiment: Ala-scan peptide ELISA, row C, run 2
T12 construct: substitution is already in the entry; also called pep10
T12 peptide: Biotin-LEDMPVDPANEAYEM
Procedure: as §2

[13] = molecular target: T13, asyn_113-127_122A (human); experiment: Ala-scan peptide ELISA, row C, run 2
T13 construct: substitution is already in the entry; also called pep11
T13 peptide: Biotin-LEDMPVDPDAEAYEM
Procedure: as §2

[14] = molecular target: T14, asyn_113-127_123A (human); experiment: Ala-scan peptide ELISA, row C, run 2
T14 construct: substitution is already in the entry; also called pep12
T14 peptide: Biotin-LEDMPVDPDNAAYEM
Procedure: as §2

[15] = molecular target: T15, asyn_113-127_124G (human); experiment: Ala-scan peptide ELISA, row C, run 2
T15 construct: substitution is already in the entry; also called pep13
T15 peptide: Biotin-LEDMPVDPDNEGYEM
Procedure: as §2

[16] = molecular target: T16, asyn_113-127_124P (human); experiment: Ala-scan peptide ELISA, row C, run 2
T16 construct: substitution is already in the entry; also called pep14
T16 peptide: Biotin-LEDMPVDPDNEPYEM
Procedure: as §2

[17] = molecular target: T17, asyn_113-127_125A (human); experiment: Ala-scan peptide ELISA, row C, run 2
T17 construct: substitution is already in the entry; also called pep15
T17 peptide: Biotin-LEDMPVDPDNEAAEM
Procedure: as §2

[18] = molecular target: T18, asyn_113-127_126A (human); experiment: Ala-scan peptide ELISA, row C, run 2
T18 construct: substitution is already in the entry; also called pep16
T18 peptide: Biotin-LEDMPVDPDNEAYAM
Procedure: as §2

[19] = molecular target: T19, asyn_113-127_127A (human); experiment: Ala-scan peptide ELISA, row C, run 2
T19 construct: substitution is already in the entry; also called pep17
T19 peptide: Biotin-LEDMPVDPDNEAYEA
Procedure: as §2

[20] = molecular target: T20, biotinylated human alpha-synuclein (human, UniProt P37840 1-140); experiment: Ala-scan peptide ELISA, row C, run 2
Procedure: as §2

[21] = molecular target: T5, asyn_113-127_114A; experiment: Ala-scan peptide ELISA, row E, run 2
Procedure: as §2

[22] = molecular target: T6, asyn_113-127_115A; experiment: Ala-scan peptide ELISA, row E, run 2
Procedure: as §2

[23] = molecular target: T8, asyn_113-127_117A; experiment: Ala-scan peptide ELISA, row E, run 2
Procedure: as §2

[24] = molecular target: T11, asyn_113-127_120A; experiment: Ala-scan peptide ELISA, row E, run 2
Procedure: as §2

[25] = molecular target: T12, asyn_113-127_121A; experiment: Ala-scan peptide ELISA, row E, run 2
Procedure: as §2

[26] = molecular target: T13, asyn_113-127_122A; experiment: Ala-scan peptide ELISA, row E, run 2
Procedure: as §2

[27] = molecular target: T15, asyn_113-127_124G; experiment: Ala-scan peptide ELISA, row E, run 2
Procedure: as §2

[28] = molecular target: T17, asyn_113-127_125A; experiment: Ala-scan peptide ELISA, row E, run 2
Procedure: as §2

[29] = molecular target: T18, asyn_113-127_126A; experiment: Ala-scan peptide ELISA, row E, run 2
Procedure: as §2

[30] = molecular target: T19, asyn_113-127_127A; experiment: Ala-scan peptide ELISA, row E, run 2
Procedure: as §2

[31] = molecular target: T3, asyn_113-127; experiment: Ala-scan peptide ELISA, row G, run 2
Procedure: as §2

[32] = molecular target: T5, asyn_113-127_114A; experiment: Ala-scan peptide ELISA, row G, run 2
Procedure: as §2

[33] = molecular target: T6, asyn_113-127_115A; experiment: Ala-scan peptide ELISA, row G, run 2
Procedure: as §2

[34] = molecular target: T17, asyn_113-127_125A; experiment: Ala-scan peptide ELISA, row G, run 2
Procedure: as §2

[35] = molecular target: T20, biotinylated human alpha-synuclein; experiment: Ala-scan peptide ELISA, row G, run 2
Procedure: as §2

B1: 20H4 (antibody, rat IgG2b, V domains shown)
VH: AVQLVESGGGLVQPKESLKISCAASGFTFSNAAMYWVRQAPGKGLELLARIRTKPNNYATYHADSVKGRFTISRDDSQSMVYLHMGNLKTEDTAMYYCTADMATGDYWGPGVMVTVSS
VL: DIQMTQSPPVLSVSVGDRVTLSCKASQNINKNLDWYQQKHGEAPKPLIYSTNNLQTGVPSRFSGSGSGTDYTLTISSLQPEDVATYYCYQYKSAWTFGGGTKLELR
notes: also called clone 20H4; rat 20H4
binding result [1]: no binding | binding result [2]: no binding | A450 [3]: 0.307 OD | A450 [4]: 0.377 OD | A450 [5]: 0.367 OD | A450 [6]: 0.306 OD | A450 [7]: 0.393 OD | A450 [8]: 0.441 OD | A450 [9]: 0.44 OD | A450 [10]: 0.046 OD | A450 [11]: 0.223 OD | A450 [12]: 0.281 OD | A450 [13]: 0.051 OD | A450 [14]: 0.377 OD | A450 [15]: 0.295 OD | A450 [16]: 0.055 OD | A450 [17]: 0.052 OD | A450 [18]: 0.369 OD | A450 [19]: 0.443 OD | A450 [20]: 0.976 OD | A450 [21]: 0.243 OD | A450 [22]: 0.145 OD | A450 [23]: 0.267 OD | A450 [24]: 0.15 OD | A450 [25]: 0.223 OD | A450 [26]: 0.05 OD | A450 [27]: 0.215 OD | A450 [28]: 0.049 OD | A450 [29]: 0.272 OD | A450 [30]: 0.279 OD | A450 [31]: 0.089 OD | A450 [32]: 0.093 OD | A450 [33]: 0.057 OD | A450 [34]: 0.049 OD | A450 [35]: 0.152 OD
